In patent publication US12533399B2, “Composition comprising tTF-NGR for use in treating soft-tissue sarcoma” (ANTUREC PHARMACEUTICALS GMBH, priority 2020, dated 2026):

B1: tTF-NGR: fusion protein of truncated tissue factor (tTF) with C-terminal NGR targeting peptide binding CD13 and N-terminal His-tag, SEQ ID NO: 2 (protein)
chain: MHHHHHHSSGLVPRGSGMKETAAAKFERQHMDSPDLGTDDDDKAMGSGTTNTVAAYNLTWKSTNFKTILEWEPKPVNQVYTVQISTKSGDWKSKCFYTTDTECDLTDEIVKDVKQTYLARVFSYPAGNVESTGSAGEPLYENSPEFTPYLETNLGQPTIQSFEQVGTKVNVTVEDERTLVRRNNTFLSLRDVFGKDLIYTLYYWKSSSSGKKTAKTNTNEFLIDVDKGENYCFSVQAVIPSRTVNRKSTDSPVECMGQEKGEFRGNGRAHA
modifications: His-tTF-NGR fusion protein

Assays:
HUVEC = assay: PS upregulation on HUVEC cell membranes, flow cytometry with annexin V-FITC; format: cell-based, human
Procedure: FIG. 4: illustration of the synergistic activity of tTF-NGR and Trabectedin in human vascular endothelial cells (HUVEC). […] PS is detected by the fluorescent PS-binding annexin V-FITC.
This effect is specifically dependent on the presence of PS as it can be completely abolished by masking PS via preincubation with annexin V.

[1] = system: HT1080 human sarcoma cells; assay: PS upregulation on HT1080 sarcoma cells; format: cell-based; conditions: Trabectedin 10 nM, 8 h; 6 experiments; p=0.001 vs non-Trabectedin control
Procedure: FIG. 5: illustration of the synergistic activity of tTF-NGR and Trabectedin in HT1080 human sarcoma cells. […] Means+standard error (p value=0.001). Propidiumiodide was used as an internal necrosis control. […] Means of 4 experiments+standard error and p-values.
As in tumor tissues part of the inner vascular cell layer of the neovasculature is not formed by endothelial cells, but also by tumor cells, which is termed “vascular mimicry”, analog experiments were also performed with HT1080 human sarcoma cells instead of HUVECs (see FIG. 5).

tumor = assay: Intravascular contrast enhanced MRI of the tumor after tTF-NGR (FIG. 3); format: in vivo; conditions: few hours after tTF-NGR application
From the text: FIG. 3: illustration of the therapeutic activity and modes of action of tTF-NGR by different imaging techniques. 1. Bluish coloration of the tumor (A, left: tTF-NGR. A, right: vehicle control) few hours after injection of tTF-NGR macroscopically visualizing blood pooling and vascular disruption. 2. Intravascular contrast enhanced Magnetic Resonance Imaging (MRI) of the tumor showing anatomy of the tumors (A, B) and drastic decrease of blood flow from high blood flow (C) to low (D) few hours after tTF-NGR application. The vascular volume fraction was quantified to decrease>1 log. 3. H&E staining of sarcoma xenograft tissue (A, thrombosis, blood pooling and vascular disruption after tTF-NGR; B, saline control with normal vasculature). 4. In vivo fluorescence reflectance imaging showing the vascular anatomy by intravascular fluorescent fibrin after tTF-NGR (B). A, before tTF-NGR; B, 1 hour after tTF-NGR; C, vascular disruption 24 hours after tTF-NGR.

[2] = Toxicity evaluation according to EU-guidelines S6 and S9; format: in vivo; conditions: most sensitive species (mouse)
From the text: tTF-NGR was produced using E. coli via a clinical-grade production process and a 4-step HPLC purification. The production process and the GMP facility are approved by the regional government (Manufacturer's Authorisation by Regierungspräsidium) and the federal Paul Ehrlich-Institute (PEI). Toxicity evaluation according to EU-guidelines S6 and S9 in mouse, rat, guinea pigs, and dogs has been completed.

[3] = system: late stage solid tumor and lymphoma patients; assay: Clinical phase I study of tTF-NGR: DLT, safety, response; format: in vivo, human
Procedure: (§1) A clinical phase I trial was performed (EudraCT-No.: 2016-003042-85; NCT02902237) with tTF-NGR applied as 1-hour infusion solved in 0.9% NaCl via a central venous line in late stage cancer patients. This trial was a first-in-class trial, which was guided by repeated contrast-enhanced ultrasound (CEUS) and MRI to assess for blood flow decrease in tumor signal lesions. A “5-day q day 22” schedule was used in the study design.
This sensitive laboratory DLT was fast reversible and allows early monitoring for subsequent dose adjustment in future trials. […] Thus, the trial was completed with a recommended dose for phase II (RPIID) at 3 mg/m^2/day×5, q d 22. The investigational medicinal product (IMP) is given via a PORT central venous access in 100 mL 0.9% NaCl over a rate-controlled infusion with a 1-hour duration.
(§2) The tumor blood flow inhibition was up to >1-log-step. […] In none of the patients treated so far a CR or a PR could be observed.

[4] = Clinical phase I study of tTF-NGR: pharmacokinetics; format: in vivo, human; conditions: patients
Procedure: as §1

[5] = system: tumor blood flow (intratumoral blood circulation); assay: Clinical phase I study of tTF-NGR: tumor blood flow by CEUS and MRI; format: in vivo, human; conditions: patients
Procedure: as §1, §2

CD13 = target: T1, CD13 (Homo sapiens, UniProt P15144); assay: Binding of tTF-NGR to its target on growing endothelial cells; format: cell-based
T1 construct: endogenous in cells; host or cells: growing / stimulated endothelial cells (EC)
Procedure: (§3) These fusion proteins were tested in vitro and in vivo for essential therapeutic properties, such as pro-coagulatory activity, specific binding to their respective target molecules on stimulated endothelial cells (EC) or pericytes, in vivo intratumoral accumulation, in vivo intratumoral activation of coagulation, tumor vascular occlusion and inhibition of blood flow, pharmacodynamic properties including therapeutic antitumor activity in xenotransplants of human tumors from different histologic origin, and finally rodent as well as non-rodent animal safety and toxicology. […] Preclinical therapeutic activity of tTF-NGR was independent of tumor histology (e.g. melanoma, lung, breast, sarcoma, glioblastoma).

[6] = system: xenotransplants of human tumors; assay: Preclinical therapeutic activity in xenotransplants of human tumors; format: in vivo
Procedure: as §3

T1 sequence (P15144 whole entry): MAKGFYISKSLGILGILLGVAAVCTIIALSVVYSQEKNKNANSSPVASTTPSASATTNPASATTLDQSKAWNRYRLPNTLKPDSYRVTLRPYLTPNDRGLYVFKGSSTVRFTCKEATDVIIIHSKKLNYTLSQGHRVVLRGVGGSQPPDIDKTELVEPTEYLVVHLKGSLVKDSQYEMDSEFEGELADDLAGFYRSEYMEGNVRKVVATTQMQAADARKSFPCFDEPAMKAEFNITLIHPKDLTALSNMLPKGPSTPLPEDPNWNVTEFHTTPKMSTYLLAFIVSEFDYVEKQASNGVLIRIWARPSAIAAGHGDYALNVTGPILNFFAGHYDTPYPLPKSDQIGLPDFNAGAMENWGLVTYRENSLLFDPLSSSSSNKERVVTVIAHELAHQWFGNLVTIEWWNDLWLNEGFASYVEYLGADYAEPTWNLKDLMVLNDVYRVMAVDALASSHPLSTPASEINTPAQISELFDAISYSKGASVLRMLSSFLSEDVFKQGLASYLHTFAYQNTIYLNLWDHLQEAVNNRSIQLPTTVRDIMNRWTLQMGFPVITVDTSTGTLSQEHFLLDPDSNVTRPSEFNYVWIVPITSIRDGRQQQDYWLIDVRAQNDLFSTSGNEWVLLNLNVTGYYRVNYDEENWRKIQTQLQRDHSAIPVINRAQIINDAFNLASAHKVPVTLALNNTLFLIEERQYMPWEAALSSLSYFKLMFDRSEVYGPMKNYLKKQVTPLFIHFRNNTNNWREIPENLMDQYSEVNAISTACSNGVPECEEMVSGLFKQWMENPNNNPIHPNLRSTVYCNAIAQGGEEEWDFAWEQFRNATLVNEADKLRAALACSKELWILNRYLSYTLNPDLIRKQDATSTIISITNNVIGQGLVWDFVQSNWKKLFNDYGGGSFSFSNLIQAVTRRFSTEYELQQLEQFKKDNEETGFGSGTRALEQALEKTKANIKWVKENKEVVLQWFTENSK

Molecule	PS-positive cells (lower right quadrant) (HUVEC; Trabectedin 15 nM, 8 h incubation, 7.21% without Trabectedin, one example experiment)	PS upregulation on HUVECs (HUVEC; increasing doses, after 8 and 12 h, 7 experiments, P<0.0001 vs non-Trabectedin control)	PS upregulation on HT1080 sarcoma cells [1]	decrease of vascular volume fraction (tumor)	limiting toxicity [2]	adverse event ([3]; at 3 mg/m^2, CTCAE II resolved, patient with angiosarcoma in left atrium)	kind of dose-limiting toxicity ([3]; at 4 mg/m^2/day, fast reversible, no clinical sequelae)	adverse event ([3]; at 4 mg/m^2, CTCAE grade II and resolved)	adverse event ([3]; at 5 mg/m^2, 1 patient, completely resolved)	dose limiting toxicity (DLT) dose ([3]; daily 1-hour iv infusions for 5 days, q day 22)	patients with CR or PR ([3]; patients treated so far)	human anti-fusion protein antibodies (HAFA) ([3]; without clinical symptoms or neutralizing capacity)	recommended dose for phase II (RPIID) ([3]; x5, q d 22)	accumulation with repeated cycles [4]	mean terminal half life ([4]; 1-hour iv infusion)	blood flow in normal organs [5]	tumor blood flow inhibition ([5]; up to)	binding to CD13 on growing EC (CD13)	effect on tumor growth ([6]; independent of tumor histology (melanoma, lung, breast, sarcoma, glioblastoma))	resistance development ([6]; repeated rounds of treatment)
COc1cc2c(cc1O)CCN[C@]21CS[C@@H]2c3c(OC(C)=O)c(C)c4c(c3[C@H](COC1=O)N1[C@@H]2[C@H]2c3c(cc(C)c(OC)c3O)C[C@@H]([C@@H]1O)N2C)OCO4 [Trabectedin]	29.22%	PS upregulation	significant PS upregulation	–	–	–	–	–	–	–	–	–	–	–	–	–	–	–	–	–
B1	–	–	–	> 1 log	pulmonary embolism	transient ischemic attack	temporary troponin T hs showed increase	central venous catheter-related venous thrombosis	CTCAE grade II lower limb deep vein thrombosis	5 mg/m^2 per day	none	detected in few patients	3 mg/m^2/day	no accumulation	8.99 h	without blood flow decrease in normal organs	> 1 log-step	specifically binds to CD13	tumor growth inhibition and regression	no resistance development
